{"source": "patent US20250136719A1", "about": "(TECHNION RESEARCH AND DEVELOPMENT FOUNDATION, published 2025)", "binders": {"B1": {"name": "mAb A54 (antibody, IgG1, V domains shown)", "VH": "QVQLQQSGAELAKPGASVRMSCKASGYTFTNYWMHWVKQRPGQGLEWIGYINPTTGYTEYNQKFKDKATLTADKSSSTAYMQLSSLTSEDSAVYYCARGGAGYDYDEDYAMDYWGQGTSVTVSS", "VL": "DIVLTQSPASLAVSLGQRATISCRASESVEYFGTSYMNWYQQKPGQPPKLLIYLASILESGIPARFSGSGSGTDFTLNIHPVEEEDAATYYCQQSNEDPYTFGGGTKLEIK", "notes": "Murine monoclonal antibody, IgG1-Kappa; Purified on protein G from hybridoma, also expressed in 293F cells; also called A54 mAb; A54 antibody"}}, "biological_target": "T1, latent 65 kDa heparanase (Hpa65) (UniProt Q9Y251 36-543, limits assumed)", "T1 construct": "Single-chain latent 65 kDa form coated on the ELISA plate; also called recombinant 65 kDa latent pro-heparanase; pro-heparanase", "T1 sequence (looked up)": "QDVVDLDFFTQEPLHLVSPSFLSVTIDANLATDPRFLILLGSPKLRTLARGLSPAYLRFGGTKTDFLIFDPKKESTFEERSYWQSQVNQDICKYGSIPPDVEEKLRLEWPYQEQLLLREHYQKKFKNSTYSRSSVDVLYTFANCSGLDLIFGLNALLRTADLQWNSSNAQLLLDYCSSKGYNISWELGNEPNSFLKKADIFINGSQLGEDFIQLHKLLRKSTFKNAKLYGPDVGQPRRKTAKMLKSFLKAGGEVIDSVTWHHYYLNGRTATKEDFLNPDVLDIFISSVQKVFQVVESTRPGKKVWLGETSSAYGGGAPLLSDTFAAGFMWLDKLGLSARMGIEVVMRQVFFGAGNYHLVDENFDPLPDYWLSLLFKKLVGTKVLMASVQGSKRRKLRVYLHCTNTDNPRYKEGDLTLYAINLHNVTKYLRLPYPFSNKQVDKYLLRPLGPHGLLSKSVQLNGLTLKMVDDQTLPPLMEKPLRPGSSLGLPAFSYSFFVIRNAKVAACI", "experiment": "ELISA, antibody titrated on plate coated with latent 65 kDa heparanase", "experimental": "An ELISA method was applied to characterize the preferential recognition of heparanase by mAb A54 vs. control mouse IgG (FIG. 2A). For this purpose, microtiter 96-well plate was coated with latent 65 kDa heparanase (Hpa65). Purified (protein G Sepharose) mAb A54 or control mouse IgG were then added at the indicated concentrations and the extent of binding to the immobilized heparanase was determined by ELISA. […] Next, the purified A54 mAb was subjected SDS-PAGE (FIG. 2B) and Western blot (FIG. 2C, Secondary antibody: Goat Anti-Mouse Kappa-HRP) analyses to further characterize the purity, molecular weight and isotype of the antibody light and heavy chains. Lanes M1 and M2: Protein Marker; Lane 1: Reducing condition; Lane 2: Non-reducing condition; Lane P: Mouse IgG1, Kappa as a positive control. (Ab: antibody: Goat Anti-Mouse IgG-HRP). Briefly, mAb A54 was expressed in 293F cells applying the pcDNA3.4 expression vector and serum free (Expi293F) medium. The antibody isotype was characterized as IgG1-Kappa.", "data": [{"binder": "B1", "values": [{"measurement": "IC50", "value": 450, "unit": "pM"}]}]}
